± gives the uncertainty stated by the source.

The data set can be described thus: amyloid nucleation score (Sup35N fusion, yeast selection) (log enrichment); library NNK2; higher = more nucleation; inactive = no reads after selection. An outline of the steps: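 Libraries of peptides of 20 random codons fused to Sup35N were expressed in psi-negative yeast and induced 24 hours with 100 μM copper sulfate. Selection was 7 days at 30°C on medium lacking adenine and uracil, and plasmid inserts were Illumina-sequenced before and after selection. Nucleation score is the DiMSum log enrichment of output over input reads, centred on the mode score of non-aggregating sequences, and sequences with under 100 input reads were left out.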
In turn, HTVTKVTLRLVCTMGCFKMM gave an amyloid nucleation score of 0.135 ± 0.65.

Turning to HVCCLKLVRCAGGGFVVKHV, the amyloid nucleation score came out at 0.779 ± 0.18. The same measure for HVGFHQKVRSELCRA: 0.087 ± 0.51. Consider HVISTSW, for which the amyloid nucleation score result was “inactive”. In turn, HVIVMYGSIY showed an amyloid nucleation score of 3.19 ± 0.12. HVKASGP gave an amyloid nucleation score of 0.339 ± 0.35. For HVLTAGNHVGSVMNWHANEM, the amyloid nucleation score entry was “inactive”. HVMCR gave an amyloid nucleation score of 0.225 ± 0.19. With HVRVYHPGQMNCSRYNTMQ, the amyloid nucleation score worked out at 0.217 ± 0.65. The result for HVVTCMRILFPSDKGSCFVK reads -0.142 ± 0.37. Substance HVVTRVSFESVFCLFTYF returned an amyloid nucleation score of 3.83 ± 0.085. The same measure for HWERLIGNLM: -0.791 ± 0.36; for HWSAS: 1.35 ± 0.47. For the substance HYAFVLGYKFYYGVANYCDG, the amyloid nucleation score is 0.886 ± 0.66. HYAVTYLLGYSVGRVLYLWK displayed an amyloid nucleation score of -0.509 ± 0.79. HYSFYLVDYSFNISVGYFCT: the amyloid nucleation score worked out at 0.571 ± 0.39.

Substance HYSMHVNGDTAAGTYAQAFC came in with an amyloid nucleation score of -0.472 ± 0.76. Consider HYSRI, for which the amyloid nucleation score turned out to be 0.647 ± 0.58. The substance HYYLSTVSVYIGMPIRWFSG had an amyloid nucleation score of 0.371 ± 0.38. As to IAAVDENCRVVCQIIFLSKV, the amyloid nucleation score entry is “inactive”.

In turn, IAFYMLSWGMMLV yielded an amyloid nucleation score of -0.074 ± 0.8.

Consider IAIFWSYWGDVIVYSGMVLE, for which the amyloid nucleation score was -0.187 ± 0.55.

As for IAIPSDF, the amyloid nucleation score is -0.214 ± 0.49. IAKFTVMDFYGMVVAYSNCR registered an amyloid nucleation score of 1.12 ± 0.42. In the case of ICAGISKKSGGTWSRARVCS, the amyloid nucleation score result is “inactive”. With ICFYLLHDRIHHSWD, the amyloid nucleation score is 5.3 ± 0.096. On to ICIVGRWYRASVFRVLEDYR, for which the amyloid nucleation score result is “inactive”. Substance ICLFDY came in with an amyloid nucleation score of -2.02 ± 0.62. Substance ICRDWVDDNVFKIMGRTQRS registered an amyloid nucleation score of 0.099 ± 0.45. The same measure for ICSPFVFGFCGTNFRRVLHR: 6.978 ± 0.033. ICVMSQCTQMYRMKICGSLQ registered an amyloid nucleation score of 0.568 ± 0.29. Consider ICWPMGICLNNSDSVLLGEC, for which the amyloid nucleation score entry is “inactive”. The result for ICYKVLAMDLMLCMSGGVLV reads 2.1 ± 0.092.

For the substance IDDARRYCRQNRFTVSMGNC, the amyloid nucleation score was -0.112 ± 0.54. The result for IDDVEGPVAPFGIATVQDQP reads 1.51 ± 0.46; that for IDFSRQTYLNCKKSRSSLLS, -0.437 ± 0.61. IDIEMIYERKPVGRIFSDT: the amyloid nucleation score is -1.25 ± 0.42. In turn, IDLFVCAESMDRRGVTIPRS gave an amyloid nucleation score of 0.041 ± 0.35. Regarding IDSDKEAFRTFLWTLDMYRL, the amyloid nucleation score is -0.536 ± 1. The same measure for IDVMVMVRQSAKEQSSVRGC: 1.34 ± 0.2.

In turn, IDWCFGRRENVGGHVRWRNG had an amyloid nucleation score of 1.48 ± 0.3.

In turn, IELFVSWKIGWVELRDVLLV gave an amyloid nucleation score of -0.055 ± 0.55. The result for IELLYIRYK reads -2.09 ± 1.1; that for IEPKHWIYTSGGLTRGRLYG, 0.073 ± 1.1.

Consider IERRVTWFLTLARCKLPTGQ, for which the amyloid nucleation score was found to be 0.796 ± 0.33. Take IESRL: the amyloid nucleation score result was “inactive”.

Substance IESRVWVGWSDD returned an amyloid nucleation score of -0.044 ± 0.49. The result for IETCKKAHRSKYTLFGLLLY reads -0.383 ± 0.63; that for IFCRIDYIYVYLHHVYVTVQ, 5.228 ± 0.036.

The substance IFDRNSYFKEHFVMIGLEGR had an amyloid nucleation score of 0.228 ± 1.

As for IFEAVVRVG, the amyloid nucleation score entry is “inactive”.

Consider IFHVIVWLFEDAFVQVQNYR, for which the amyloid nucleation score is 4.29 ± 0.078. The same measure for IFKSHIPW: -1.22 ± 0.48; for IFLSSDLTDGVYSSLYDPID: 0.042 ± 1.1; for IFNDVIFNLRFC: 7.443 ± 0.054. In turn, IFRAYIAGKTIYRCDQYVGM gave an amyloid nucleation score of -0.539 ± 0.55. Turning to IFSHFILCKQAAVCTVNEFR, the amyloid nucleation score turned out to be 5.08 ± 0.072. With IFSNLRSFE, the amyloid nucleation score amounted to 0.657 ± 0.22. The same measure for IFVALEIGVVNVDQVAKDVC: 6.75 ± 0.069. Regarding IFWTELCNPKFSFC, the amyloid nucleation score was 9.439 ± 0.023.

For IFYCFGKLDA, the amyloid nucleation score was found to be 5.18 ± 0.072.

Take IFYYG: the amyloid nucleation score was -0.945 ± 0.36. IGCGARLEGKMMACMSRDRQ displayed an amyloid nucleation score of 0.461 ± 0.64. The same measure for IGCLVYHIITRVFVFVSPLF: “inactive”; for IGDSVGSDWTSTFMCDSVCR: -0.15 ± 0.42. Turning to IGLANSSVCFSAFVTWYSLH, the amyloid nucleation score entry is “inactive”.

For the substance IGNRQVDFISDGAG, the amyloid nucleation score came to 0.034 ± 1.1. Consider IGSVDDLNLKRICNDLDTP, for which the amyloid nucleation score was found to be 0.182 ± 0.79. The substance IGTEWVFVM showed an amyloid nucleation score of 0.17 ± 0.64. Turning to IGTLSRNERASRNTHWDILT, the amyloid nucleation score stood at 0.757 ± 0.47. In turn, IGVQVFPRMHVG yielded an amyloid nucleation score of 3.06 ± 0.15. The result for IHASSVILITCFEFNFYYFA reads 4.64 ± 0.057; that for IHDWKQSYVNVC, 0.084 ± 0.45; that for IHIWGSLSIDIEFVCGMKAR, 1.04 ± 0.56. The result for IHKAGFKDKGC reads “inactive”; that for IHLQIWAFFMLRIPPGRNKT, -0.636 ± 0.76. IHLRWPMKRLVYTYCFYFYS showed an amyloid nucleation score of -0.788 ± 0.76. For the substance IHLWICSISYNAVSIRFTSY, the amyloid nucleation score came out at 1.42 ± 0.097. On to IHRPTRFYTFSSSTSEQA, for which the amyloid nucleation score was 0.351 ± 0.64.

IHYFRTWVYHYGLRGFGIIR gave an amyloid nucleation score of 0.918 ± 0.58. For IIALKMVVLIKCIKVY, the amyloid nucleation score entry was “inactive”. The substance IICMEVIFSLANCADWRTAV returned an amyloid nucleation score of 3.53 ± 0.12. The result for IICTSSPQLIVYTSVRS reads 7.08 ± 0.042; that for IIGAWKM, 0.992 ± 0.33. As to IIHDEVSLPWI, the amyloid nucleation score entry is “inactive”. Substance IILRSCMYCGSLAIIKGWMS returned an amyloid nucleation score of 2.91 ± 0.12. On to IINYANLSTVVNFYIRIGYC, for which the amyloid nucleation score was 6.812 ± 0.028. The same measure for IIPFRRSTVRLVRCLWISGL: 1.13 ± 0.31; for IIRPVFILNLPYLFRCVG: 0.465 ± 0.28. Consider IKCRVITQSCIPSSINRLDG, for which the amyloid nucleation score was -0.114 ± 1.1. IKGTQSVRDTVSLVVIKDVW showed an amyloid nucleation score of 0.627 ± 0.4. On to IKGVRQHLTTYKGTL, for which the amyloid nucleation score was -0.408 ± 0.49. For IKRSMCICY, the amyloid nucleation score stood at 0.089 ± 1.1. The result for IKSLSMRYFIRLFRY reads “inactive”.

IKSRICISSYNNDMCGRFVL: the amyloid nucleation score was -1.86 ± 0.62. Turning to IKTIADIYCISQSRIGSKLT, the amyloid nucleation score result was “inactive”. Regarding IKVSFRRTGGLLHLCKWLTC, the amyloid nucleation score is -0.5 ± 0.33. Turning to IKWSLHRYYFVMFICSFIAS, the amyloid nucleation score is -0.83 ± 0.61. On to IKYNEVVVVRWEANGRFE, for which the amyloid nucleation score was 4 ± 0.063. ILATSRVILVFCAMCACRWG: the amyloid nucleation score came out at 2.98 ± 0.062. Substance ILCFGFITTNSIRLQSPMVV came in with an amyloid nucleation score of 0.753 ± 0.51. The same measure for ILCLFTLSSSKCYGG: 5.689 ± 0.037. In turn, ILEFKINPG came in with an amyloid nucleation score of -1.05 ± 0.43. ILIREPLHDIGNVNLLVRSS yielded an amyloid nucleation score of -0.359 ± 0.48. For the substance ILKIYVGQSSPLYFACLHIK, the amyloid nucleation score entry is “inactive”.

For ILLQLSIKRSVASSWLHNGR, the amyloid nucleation score was found to be 3.61 ± 0.046. In the case of ILLYNCCCEGWACKSWLGSH, the amyloid nucleation score result is “inactive”.

ILSFM: the amyloid nucleation score was -1.27 ± 1. In the case of ILTFRVYPIPFDFYFGGLEL, the amyloid nucleation score is 0.034 ± 1.1.

Turning to ILVTVNTGSFLKSILHWL, the amyloid nucleation score turned out to be 2.31 ± 0.19. For the substance ILWWNKAMGCFNELVLGRRV, the amyloid nucleation score is -0.016 ± 0.79.

ILYKYETLMLFLSSEYNVIC came in with an amyloid nucleation score of 3.9 ± 0.039. Substance ILYLGHN yielded an amyloid nucleation score of -1.61 ± 0.64.

Take IMDLAKVCEGVLSSGRVALI: the amyloid nucleation score is 0.096 ± 0.29. IMFMGNTVIRDCDLQ yielded an amyloid nucleation score of 4.32 ± 0.062. The same measure for IMLLNLYKDGSGGRRSKLLQ: -0.09 ± 0.33; for IMMNNMAVIFR: 6.3 ± 0.083.

In the case of IMSFKFENC, the amyloid nucleation score was 1.78 ± 0.26.

Take IMWYFIINWHP: the amyloid nucleation score came to 4.79 ± 0.074. In turn, IMYCCVMLIFTMSVVEWGFT showed an amyloid nucleation score of -0.383 ± 1.

In the case of IMYLLGKGLWTVAVYPSRYP, the amyloid nucleation score is -0.806 ± 0.61. INDSEVMRICLPVGFGHLEG: the amyloid nucleation score was 2.45 ± 0.077. Consider INGNFVIKKCYRGYVS, for which the amyloid nucleation score was -0.557 ± 1.1. Take INIRLFFHDFTRMGSELIGY: the amyloid nucleation score was determined as 0.318 ± 0.8. INKVFNCYFLFSGHIVGLRS showed an amyloid nucleation score of -0.321 ± 0.79. With INQKDRRGNPYY, the amyloid nucleation score is -0.042 ± 0.79.

Turning to INWCSDMHNCVCLTIGQWLV, the amyloid nucleation score was 3.36 ± 0.16.

IPRFRLYANCRMFNRV yielded an amyloid nucleation score of 0.056 ± 0.39. Substance IPRSPCDKENKSRHLHVAWA returned an amyloid nucleation score of -0.372 ± 0.45. As to IPSRFPNFNR, the amyloid nucleation score was -1.62 ± 0.55. The result for IPTACEHKRSPRVQPQRNSA reads 0.163 ± 0.4; that for IQGFGLKLVEIYWEARQLVH, “inactive”. For IQIFGVTYGSG, the amyloid nucleation score was -0.007 ± 0.79. The result for IREEGQFSLAVFSYMKVSPY reads 2.95 ± 0.071. The result for IREGLFRVTIDYSSMLCSGR reads 3.01 ± 0.12; that for IREPSCWFLFFIKINAGDAV, “inactive”. In turn, IRFWSKSGFVQGCSIRISLS had an amyloid nucleation score of 0.02 ± 1.

For the substance IRGLGWSAPLRVIRVAPTYV, the amyloid nucleation score worked out at 0.501 ± 0.57. Regarding IRIACSGLSDRFMNRVHLHS, the amyloid nucleation score was -0.017 ± 0.46.

(Values after the supplement of paper PMC12042874.)
